# From article PMC5059719, “Tetrameric structure of the restriction DNA glycosylase R.PabI in complex with nonspecific double-stranded DNA” (Scientific Reports, 2016)
# Where a chain is given by its changes, count along the chain named.
# T1: R.PabI Y68F (Pyrococcus abyssi, UniProt Q9V2B6 8-226, Y68F)
# T1 sequence: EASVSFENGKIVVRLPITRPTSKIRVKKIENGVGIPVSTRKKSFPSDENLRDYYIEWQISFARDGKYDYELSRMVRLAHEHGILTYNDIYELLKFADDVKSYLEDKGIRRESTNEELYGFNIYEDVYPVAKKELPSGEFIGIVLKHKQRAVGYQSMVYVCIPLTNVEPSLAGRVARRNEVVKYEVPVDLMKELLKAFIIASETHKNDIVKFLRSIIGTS
# T2: R.PabI R32A E63A (Pyrococcus abyssi, UniProt Q9V2B6 8-226, R32A;E63A)
# T2 sequence: T1 sequence with R25A, E56A, F61Y
# T3: R.PabI Y68F D71R (Pyrococcus abyssi, UniProt Q9V2B6 8-226, Y68F;D71R)
# T3 sequence: T1 sequence with D64R
# T4: R.PabI Y68F R70D D71R (Pyrococcus abyssi, UniProt Q9V2B6 8-226, Y68F;R70D;D71R)
# T4 sequence: T1 sequence with R63D, D64R
# T5: R.PabI Y68F R70D (Pyrococcus abyssi, UniProt Q9V2B6 8-226, Y68F;R70D)
# T5 sequence: T1 sequence with R63D
# B1: 20 bp nonspecific probe without GT, TA, AC steps (dsDNA)
# DNA 1: GCATCGATTCGAATCGATGC
# DNA 2: GCATCGATTCGAATCGATGC
# B2: 20 bp specific probe (GTAC) (dsDNA)
# DNA 1: GCATAGCTGTACAGCTATGC
# DNA 2: GCATAGCTGTACAGCTATGC
# B3: 20 bp nonspecific dsDNA (co-crystallization) (dsDNA)
# DNA 1: GCACTAGTTCGAACTAGTGC
# DNA 2: GCACTAGTTCGAACTAGTGC
# B4: 20 bp nonspecific probe (same sequence as co-crystallization) (dsDNA)
# DNA 1: GCACTAGTTCGAACTAGTGC
# DNA 2: GCACTAGTTCGAACTAGTGC
# Columns and labels:
# [1] = target: T1, R.PabI Y68F; assay: EMSA; about the same binding as co-crystallization DNA; poly-dT competitor; EMSA: 0.1 uM DNA, 0.1-12.8 uM R.PabI dimer, 10 mM MES pH 6.0, 300 mM NaCl, 50 uM poly-dT (40 nt) competitor, 30 min at 4 C; 12% PAGE in 0.5x TBE at 4 C; details: protein: recombinant; chain copies: 2; label: 5'-fluorescein; blunt; self-complementary, 2 copies of S2
# [2] = target: T1, R.PabI Y68F; assay: EMSA; dimer shift at low concentration, supershift at high; poly-dT competitor; EMSA: 0.1 uM DNA, 0.1-12.8 uM R.PabI dimer, 10 mM MES pH 6.0, 300 mM NaCl, 50 uM poly-dT (40 nt) competitor, 30 min at 4 C; 12% PAGE in 0.5x TBE at 4 C; details: protein: recombinant; chain copies: 2; label: 5'-fluorescein; blunt; self-complementary, 2 copies of S3
# [3] = target: T2, R.PabI R32A E63A; assay: X-ray crystallography; 1.9 A; tetramer sandwiches dsDNA; 0.2 M calcium acetate, 0.1 M imidazole pH 8.0, 10% PEG8000; EMSA: 0.1 uM DNA, 0.1-12.8 uM R.PabI dimer, 10 mM MES pH 6.0, 300 mM NaCl, 50 uM poly-dT (40 nt) competitor, 30 min at 4 C; 12% PAGE in 0.5x TBE at 4 C; details: protein: recombinant; chain copies: 4; blunt; self-complementary, 2 copies of S1
# [4] = target: T3, R.PabI Y68F D71R; assay: EMSA; dimer shift at 0.2-1.6 uM plus supershift; tetramerization inhibited; poly-dT competitor; EMSA: 0.1 uM DNA, 0.1-12.8 uM R.PabI dimer, 10 mM MES pH 6.0, 300 mM NaCl, 50 uM poly-dT (40 nt) competitor, 30 min at 4 C; 12% PAGE in 0.5x TBE at 4 C; details: protein: recombinant; chain copies: 2; label: 5'-fluorescein; blunt; self-complementary, 2 copies of S1
# [5] = target: T1, R.PabI Y68F; assay: EMSA; predominant supershift (tetramer), dimer band very weak; poly-dT competitor; EMSA: 0.1 uM DNA, 0.1-12.8 uM R.PabI dimer, 10 mM MES pH 6.0, 300 mM NaCl, 50 uM poly-dT (40 nt) competitor, 30 min at 4 C; 12% PAGE in 0.5x TBE at 4 C; details: protein: recombinant; chain copies: 2; label: 5'-fluorescein; blunt; self-complementary, 2 copies of S1
# [6] = target: T4, R.PabI Y68F R70D D71R; assay: EMSA; similar to Y68F; poly-dT competitor; EMSA: 0.1 uM DNA, 0.1-12.8 uM R.PabI dimer, 10 mM MES pH 6.0, 300 mM NaCl, 50 uM poly-dT (40 nt) competitor, 30 min at 4 C; 12% PAGE in 0.5x TBE at 4 C; details: protein: recombinant; chain copies: 4; label: 5'-fluorescein; blunt; self-complementary, 2 copies of S1
# [7] = target: T5, R.PabI Y68F R70D; assay: EMSA; supershift only, about the same as Y68F; poly-dT competitor; EMSA: 0.1 uM DNA, 0.1-12.8 uM R.PabI dimer, 10 mM MES pH 6.0, 300 mM NaCl, 50 uM poly-dT (40 nt) competitor, 30 min at 4 C; 12% PAGE in 0.5x TBE at 4 C; details: protein: recombinant; chain copies: 4; label: 5'-fluorescein; blunt; self-complementary, 2 copies of S1
binder,measurement,setting,value
B1,binding result,[1],binds
B2,binding result,[2],binds
B3,binding result,[3],binds
B4,binding result,[4],binds
same,binding result,[5],binds
same,binding result,[6],binds
same,binding result,[7],binds
